PMC10937199 (ESMO Open, 2024)

Experiments:
Experiment in all cases: Safety
Assay type in all cases: in vivo, human
[1] = tested on: patients with advanced solid tumors; conditions: Part B
[2] = tested on: patients with advanced solid tumors; conditions: Part A
[3] = tested on: patients with advanced solid tumors; conditions: Part FE
[4] = peposertib 100 mg q.d., all grade
[5] = peposertib 100 mg q.d., grade ≥3
[6] = peposertib 150 mg q.d., all grade
[7] = peposertib 150 mg q.d., grade ≥3
[8] = peposertib 200 mg q.d., all grade
[9] = peposertib 200 mg q.d., grade ≥3
[10] = peposertib 250 mg q.d., all grade
[11] = peposertib 250 mg q.d., grade ≥3
[12] = peposertib 100 mg b.i.d., all grade
[13] = peposertib 100 mg b.i.d., grade ≥3
[14] = peposertib 200 mg b.i.d., all grade
[15] = peposertib 200 mg b.i.d., grade ≥3
[16] = peposertib 250 mg b.i.d., all grade
[17] = peposertib 250 mg b.i.d., grade ≥3
[18] = peposertib 300 mg b.i.d., all grade
[19] = peposertib 300 mg b.i.d., grade ≥3
[20] = peposertib 400 mg b.i.d., all grade
[21] = peposertib 400 mg b.i.d., grade ≥3

For “Avelumab: anti-PD-L1 antibody, immune checkpoint inhibitor, 800 mg Q2W intravenous infusion [reference compound]”, the “Avelumab-related TEAE: IRR” value ([1]; all dose levels) was 8 (42.1%), the “Avelumab-related TEAE: fatigue” value ([1]; all dose levels) was 3 (15.8%) and the “Serious TEAE, avelumab related” value [1, 4] was 1 (33.3) n (%). For the same substance, the “TEAE, avelumab related” value [1, 4] was 3 (100.0) n (%), the “Serious TEAE, avelumab related” value [1, 5] was 1 (33.3) n (%) and the “TEAE, avelumab related” value [1, 5] was 1 (33.3) n (%). The “Serious TEAE, avelumab related” value [1, 6] was 1 (33.3) n (%), the “TEAE, avelumab related” value [1, 6] was 3 (100.0) n (%) and the “Serious TEAE, avelumab related” value [1, 7] was 1 (33.3) n (%). The “TEAE, avelumab related” value [1, 7] was 1 (33.3) n (%), the Avelumab-related pneumonitis ([1]; peposertib 200 mg q.d.) was 25.0% and the “Serious TEAE, avelumab related” value [1, 8] was 0 n (%). The “TEAE, avelumab related” value [1, 8] was 3 (75.0) n (%), the “Serious TEAE, avelumab related” value [1, 9] was 0 n (%) and the “TEAE, avelumab related” value [1, 9] was 0 n (%). For the same substance, the Avelumab-related pneumonitis ([1]; peposertib 250 mg q.d.) was 11.1%, the “Serious TEAE, avelumab related” value [1, 10] was 2 (22.2) n (%) and the “TEAE, avelumab related” value [1, 10] was 7 (77.8) n (%). For the same substance, the “Serious TEAE, avelumab related” value [1, 11] was 2 (22.2) n (%), the “TEAE, avelumab related” value [1, 11] was 3 (33.3) n (%) and the “Avelumab-related TEAE: diarrhea” value ([2]; all dose levels) was 4 (13.8%). The “Avelumab-related TEAE: fatigue” value ([2]; all dose levels) was 5 (17.2%), the “Avelumab-related TEAE: rash” value ([2]; all dose levels) was 5 (17.2%) and the “Avelumab-related TEAE: vomiting” value ([2]; all dose levels) was 4 (13.8%). The “Serious TEAE, avelumab related” value [2, 12] was 0 n (%), the “TEAE, avelumab related” value [2, 12] was 2 (50.0) n (%) and the “Serious TEAE, avelumab related” value [2, 13] was 0 n (%). For the same substance, the “TEAE, avelumab related” value [2, 13] was 0 n (%), the Avelumab-related pneumonitis ([2]; peposertib 200 mg b.i.d.) was 9.1% and the “Serious TEAE, avelumab related” value [2, 14] was 3 (27.3) n (%). The “TEAE, avelumab related” value [2, 14] was 8 (72.7) n (%), the “Serious TEAE, avelumab related” value [2, 15] was 3 (27.3) n (%) and the “TEAE, avelumab related” value [2, 15] was 3 (27.3) n (%). For the same substance, the Avelumab-related pneumonitis ([2]; peposertib 250 mg b.i.d.) was 25.0%, the “Serious TEAE, avelumab related” value [2, 16] was 3 (75.0) n (%) and the “TEAE, avelumab related” value [2, 16] was 3 (75.0) n (%). The “Serious TEAE, avelumab related” value [2, 17] was 3 (75.0) n (%), the “TEAE, avelumab related” value [2, 17] was 3 (75.0) n (%) and the Avelumab-related pneumonitis ([2]; peposertib 300 mg b.i.d.) was 16.7%. The “Serious TEAE, avelumab related” value [2, 18] was 1 (16.7) n (%), the “TEAE, avelumab related” value [2, 18] was 3 (50.0) n (%) and the “Serious TEAE, avelumab related” value [2, 19] was 1 (16.7) n (%). For the same substance, the “TEAE, avelumab related” value [2, 19] was 2 (33.3) n (%), the “Serious TEAE, avelumab related” value [2, 20] was 3 (75.0) n (%) and the “TEAE, avelumab related” value [2, 20] was 4 (100.0) n (%). The “Serious TEAE, avelumab related” value [2, 21] was 3 (75.0) n (%), the “TEAE, avelumab related” value [2, 21] was 4 (100.0) n (%) and the “Avelumab-related TEAE: diarrhea” value ([3]; all dose levels) was 3 (33.3%). The “Avelumab-related TEAE: fatigue” value ([3]; all dose levels) was 3 (33.3%), the “Serious TEAE, avelumab related” value [3, 12] was 1 (25.0) n (%) and the “TEAE, avelumab related” value [3, 12] was 3 (75.0) n (%). The “Serious TEAE, avelumab related” value [3, 13] was 1 (25.0) n (%), the “TEAE, avelumab related” value [3, 13] was 1 (25.0) n (%) and the “Serious TEAE, avelumab related” value [3, 14] was 2 (40.0) n (%). For the same substance, the “TEAE, avelumab related” value [3, 14] was 5 (100.0) n (%), the “Serious TEAE, avelumab related” value [3, 15] was 2 (40.0) n (%) and the “TEAE, avelumab related” value [3, 15] was 3 (60.0) n (%).
